Experimental data: PMC4962041, “Human DNA-Damage-Inducible 2 Protein Is Structurally and Functionally Distinct from Its Yeast Ortholog” (Scientific Reports, 2016)
One block for each binder: values may come before it. No end group written: not given here.

Key:
[1] = target: the molecule itself; test: SAXS; His-tagged HDD-RVP at 5 and 2.5 mg/ml in 25 mM Tris/HCl, 75 mM NaCl, 5% glycerol, 1 mM DTT, pH 7.4; molecular mass from the invariant Vc
human ubiquitin [2] = target: T1, human ubiquitin (human, UniProt P0CG48 1-76); test: NMR titration; 15N-labelled UBQ (0.1 mM) with unlabelled peptide; 15N/1H-HSQC chemical shift perturbation; 50 mM sodium phosphate, pH 6.0 and pH 7.4, 25 °C; 1:1 model for the Kd; conditions: both partners purified
T1 construct: human ubiquitin, the cut product of the ubiquitin precursors; shifts were mapped on PDB 1D3Z; also called UBQ; mono-UBQ; source: 15N- or 15N/13C-labelled where observed by NMR

[3] = target: the molecule itself; test: crystal structure; hDdi2 RVP (212-360), 1.9 Å, PDB 4RGH; hanging drop, 0.2 M ammonium acetate, 0.1 M Bis-Tris pH 5.5, 25% PEG 3350
human ubiquitin [4] = target: T1, human ubiquitin; test: NMR titration; 15N-labelled hDdi2 UBL (0.05 mM) with a 1- to 10-fold molar excess of UBQ; 50 mM sodium phosphate, pH 7.4, 25 °C; 1:1 model for the Kd; conditions: both partners purified

B1: hDdi2 HDD-RVP (residues 116-360) (domain or fragment, human, UniProt Q5TDH0 116-360, looked up)
chain: QQSHSSPGEITSSPQGLDNPALLRDMLLANPHELSLLKERNPPLAEALLSGDLEKFSRVLVEQQQDRARREQERIRLFSADPFDLEAQAKIEEDIRQQNIEENMTIAMEEAPESFGQVVMLYINCKVNGHPVKAFVDSGAQMTIMSQACAERCNIMRLVDRRWAGIAKGVGTQKIIGRVHLAQVQIEGDFLPCSFSILEEQPMDMLLGLDMLKRHQCSIDLKKNVLVIGTTGSQTTFLPEGELPE
notes: human DNA-damage-inducible 2 protein (Ddi homolog 2, 399 amino acids), residues 116-360 (lacking both UBL and UIM); Called His-tagged for the SAXS experiment; dimer by SAXS; not shown: His tag, N-terminal, kept
stoichiometry N [1]: 2

B3: hDdi2 RVP domain (residues 212-360) (domain or fragment)
chain: not shown
notes: Gln232 to Pro359 visible in the structure
binding result [3]: binds

More lines, now with the values ahead:

Kd (human ubiquitin [2]): 2.2 to 3.2 mM
B2: hDdi2-UIM peptide (peptide)
peptide: EEIADQELAEALQKSAEDAE-NH2
notes: Dissolved in DMSO before use; also called C-terminal hDdi2 UIM peptide; source: synthetic peptide (solid phase, HPLC purified)

Kd (human ubiquitin [4]): 420 to 1100 µM
B4: hDdi2 UBL domain (residues 1-76) (domain or fragment, human, UniProt Q5TDH0 1-76, looked up)
chain: MLLTVYCVRRDLSEVTFSLQVDADFELHNFRALCELESGIPAAESQIVYAERPLTDNHRSLASYGLKDGDVVILRQ
notes: human DNA-damage-inducible 2 protein (Ddi homolog 2, 399 amino acids), residues 1-76: ubiquitin-like domain; also called N-terminal UBL domain of hDdi2; not shown: His tag, N-terminal, kept
